The text below walks through data of patent US20170015742A1 (published 2017).

What is called Kd is a measure of binding affinity in units of concentration. A high value points to weaker binding. Usually kon stands for the second-order rate constant of association.

For one test, the target named is T1, Human VEGF-A 165 (human, UniProt P15692 207-395).
T1 construct: also called hVEGF165
Kind of test: SPR (Biacore), method of Example 1.1.

The next test deals with T2, Human PDGF-BB (human, UniProt P01127 82-190).
T2 construct: also called hPDGF-BB
T2 sequence (P01127 82-190 limits assumed): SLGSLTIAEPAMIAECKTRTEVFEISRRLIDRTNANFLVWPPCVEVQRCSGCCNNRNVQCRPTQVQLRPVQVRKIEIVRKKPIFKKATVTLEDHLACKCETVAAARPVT
As to the kind of experiment: SPR (Biacore), method of Example 1.1.

Another test deals with VEGF-A (UniProt P15692-4 27-191, limits assumed). As to the kind of experiment: SPR (Biacore), DVD-Ig captured by anti-human Fc, antigen injected. As to the method: (§1) For example, approximately 9000 RU of goat anti-human Fc specific polyclonal antibody (Thermo Fisher Scientific Inc., Rockford, Ill.) diluted in 10 mM sodium acetate (pH 4.5) is directly immobilized across a CM5 research grade biosensor chip using a standard amine coupling kit according to manufacturer's instructions and procedures at 25 μg/ml. Unreacted moieties on the biosensor surface were blocked with ethanolamine. For kinetic analysis, rate equations derived from the 1:1 Langmuir binding model were fitted simultaneously to multiple antigen injections (using global fit analysis) with the use of Scrubber 2 (BioLogic Software), Biacore Biaevaluation 4.0.1 software or Biacore T100 Evaluation software. Purified antibodies or DVD-Ig molecules were diluted in running buffer for capture across goat anti-human Fc reaction surfaces. Antibodies or DVD-Ig molecules to be captured as a ligand (1 μg/ml) were injected over reaction matrices at a flow rate of 10 μl/minute. During the assay, all measurements were referenced against the capture surface alone (i.e., with no captured antibody or DVD-Ig molecule). […] The equilibrium dissociation constant KD (M) of the reaction between antibodies and the target antigen was then calculated from the kinetic rate constants by the following formula: KD=Koff/Kₒₙ. Binding was recorded as a function of time and kinetic rate constants were calculated.
Sequence of VEGF-A (P15692 other isoform, or with tags, fused parts or gaps limits assumed): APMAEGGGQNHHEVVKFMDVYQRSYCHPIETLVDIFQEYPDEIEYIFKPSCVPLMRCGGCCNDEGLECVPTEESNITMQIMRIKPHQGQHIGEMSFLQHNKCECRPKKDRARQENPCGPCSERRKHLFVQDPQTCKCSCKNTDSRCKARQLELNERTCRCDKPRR

Another test concerns the target PDGF-BB (UniProt P01127 82-190). The description is as above. As for the experimental part:
as §1

T1 sequence (P15692 other isoform, or with tags, fused parts or gaps limits assumed): as above
Sequence of PDGF-BB (P01127 82-190): as the sequence (P01127 82-190 limits assumed) above

B1: CODV019 (bispecific antibody, human IgG1, kappa, L234A L235A)
heavy: DTVLTQSPATLSLSPGERATLSCRASESVSTHMHWYQQKPGQAPRLLIYGASNLESGVPARFSGSGSGTDFTLTISSLEPEDFAVYFCQQSWNDPFTFGQGTKLEIKGGGSGGGGEVTLRESGPALVKPTQTLTLTCTFSGFSLSTYGMGVGWIRQPPGKALEWLANIWWDDDKYYNPSLKNRLTISKDTSKNQVVLTMTNMDPVDTATYYCARIESIGTTYSFDYWGQGTMVTVSSLGGCGGGSASTKGPSVFPLAPSSKSTSGGTAALGCLVKDYFPEPVTVSWNSGALTSGVHTFPAVLQSSGLYSLSSVVTVPSSSLGTQTYICNVNHKPSNTKVDKKVEPKSCDKTHTCPPCPAPEAAGGPSVFLFPPKPKDTLMISRTPEVTCVVVDVSHEDPEVKFNWYVDGVEVHNAKTKPREEQYNSTYRVVSVLTVLHQDWLNGKEYKCKVSNKALPAPIEKTISKAKGQPREPQVYTLPPSREEMTKNQVSLTCLVKGFYPSDIAVEWESNGQPENNYKTTPPVLDSDGSFFLYSKLTVDKSRWQQGNVFSCSVMHEALHNAYTQKSLSLSPGK
light: EFVLTQSPGTLSLSPGERATLSCERSSGDIGDSYVSWYQQKPGQAPRLVIYADDQRPSGIPDRFSGSGSGTDFTLTISRLEPEDFAVYYCQSYDINIDIVFGGGTKVEIKGGGSGGGGEVQLVQSGSELKKPGASVKVSCKASGYTFTNYGMYWVRQAPGQGLEWMGWINTETGKPTYADDFKGRFVFSLDTSVSTAYLQISSLKAEDTAVYYCARTNYYYRSYIFYFDYWGQGTMVTVSSLGGCGGGSRTVAAPSVFIFPPSDEQLKSGTASVVCLLNNFYPREAKVQWKVDNALQSGNSQESVTEQDSKDSTYSLSSTLTLSKADYEKHKVYACEVTHQGLSSPVTKSFNRGEC
notes: Anti-human VEGF-A/anti-human PDGF-BB cross-over DVD-Ig (CO-DVD-Ig); also called PR-1571832
Turning to B1, in the test with Human VEGF-A 165, the Kd came to 50 pM and the kon worked out at 2.9e+06 M⁻¹ s⁻¹. In the test with Human PDGF-BB, the affinity, expressed as Kd, was 4.4 pM and the kon was determined as 3.9e+07 M⁻¹ s⁻¹.

B2: CODV020 (bispecific antibody, human IgG1, kappa, L234A L235A)
heavy: EFVLTQSPGTLSLSPGERATLSCERSSGDIGDSYVSWYQQKPGQAPRLVIYADDQRPSGIPDRFSGSGSGTDFTLTISRLEPEDFAVYYCQSYDINIDIVFGGGTKVEIKGGGSGGGGEVQLVQSGSELKKPGASVKVSCKASGYTFTNYGMYWVRQAPGQGLEWMGWINTETGKPTYADDFKGRFVFSLDTSVSTAYLQISSLKAEDTAVYYCARTNYYYRSYIFYFDYWGQGTMVTVSSLGGCGGGSASTKGPSVFPLAPSSKSTSGGTAALGCLVKDYFPEPVTVSWNSGALTSGVHTFPAVLQSSGLYSLSSVVTVPSSSLGTQTYICNVNHKPSNTKVDKKVEPKSCDKTHTCPPCPAPEAAGGPSVFLFPPKPKDTLMISRTPEVTCVVVDVSHEDPEVKFNWYVDGVEVHNAKTKPREEQYNSTYRVVSVLTVLHQDWLNGKEYKCKVSNKALPAPIEKTISKAKGQPREPQVYTLPPSREEMTKNQVSLTCLVKGFYPSDIAVEWESNGQPENNYKTTPPVLDSDGSFFLYSKLTVDKSRWQQGNVFSCSVMHEALHNAYTQKSLSLSPGK
light: DTVLTQSPATLSLSPGERATLSCRASESVSTHMHWYQQKPGQAPRLLIYGASNLESGVPARFSGSGSGTDFTLTISSLEPEDFAVYFCQQSWNDPFTFGQGTKLEIKGGGSGGGGEVTLRESGPALVKPTQTLTLTCTFSGFSLSTYGMGVGWIRQPPGKALEWLANIWWDDDKYYNPSLKNRLTISKDTSKNQVVLTMTNMDPVDTATYYCARIESIGTTYSFDYWGQGTMVTVSSLGGCGGGSRTVAAPSVFIFPPSDEQLKSGTASVVCLLNNFYPREAKVQWKVDNALQSGNSQESVTEQDSKDSTYSLSSTLTLSKADYEKHKVYACEVTHQGLSSPVTKSFNRGEC
notes: Anti-human VEGF-A/anti-human PDGF-BB cross-over DVD-Ig (CO-DVD-Ig); also called PR-1571836
In the test with Human VEGF-A 165, B2 yielded a dissociation constant (Kd) of 33 pM and a kon of 3.1e+06 M⁻¹ s⁻¹. In addition, in the test with Human PDGF-BB, the Kd is 3.5 pM and the kon was found to be 4.6e+07 M⁻¹ s⁻¹.

B3: 9E10.1_GS_CL-33675 (PR-1610561) (bispecific antibody, human IgG1, kappa, L234A L235A)
heavy: EIQLVQSGSELKKPGASVKVSCKASGYTFTNYGMYWVKQAPGQGLEYMGWIDTETGRPTYADDFKGRFVFSLDTSVSTAYLQISSLKAEDTAVYFCARWSGDTTGIRGPWFAYWGQGTLVTVSSGGGGSGGGGSEVTLRESGPALVKPTQTLTLTCTFSGFSLSTYGMGVGWIRQPPGKALEWLANIWWDDDKYYNPSLKNRLTISKDTSKNQVVLTMTNMDPVDTATYYCARIESSGPKYSFDYWGQGTMVTVSSASTKGPSVFPLAPSSKSTSGGTAALGCLVKDYFPEPVTVSWNSGALTSGVHTFPAVLQSSGLYSLSSVVTVPSSSLGTQTYICNVNHKPSNTKVDKKVEPKSCDKTHTCPPCPAPEAAGGPSVFLFPPKPKDTLMISRTPEVTCVVVDVSHEDPEVKFNWYVDGVEVHNAKTKPREEQYNSTYRVVSVLTVLHQDWLNGKEYKCKVSNKALPAPIEKTISKAKGQPREPQVYTLPPSREEMTKNQVSLTCLVKGFYPSDIAVEWESNGQPENNYKTTPPVLDSDGSFFLYSKLTVDKSRWQQGNVFSCSVMHEALHNAYTQKSLSLSPGK
light: DIRMTQSPSSLSASVGDRVTIECLASEDIYSDLAWYQQKPGKSPKLLIYNANGLQNGVPSRFSGSGSGTDYSLTISSLQPEDVATYFCQQYNYFPGTFGQGTKLEIKGGSGGGGSGGEIVLTQSPGTLSLSPGERATLSCRASSGSIWYSFVSWYQQKPGQAPRLLIYADDQRASGIPDRFSGSGSGTDFTLTISRLEPEDFAVYYCQSYGINIDVVFGGGTKVEIKRTVAAPSVFIFPPSDEQLKSGTASVVCLLNNFYPREAKVQWKVDNALQSGNSQESVTEQDSKDSTYSLSSTLTLSKADYEKHKVYACEVTHQGLSSPVTKSFNRGEC
notes: DVD-Ig: outer hBEW-9E10.1 (VEGF), inner CL-33675 (PDGF), linkers GS-H10 / GS-L10(dR); Human IgG1 L234A, L235A, H435A with kappa light chain; also called 9E10.1-GS-33675; hu VEGF 9E10.1-GS-hu PDGF 33675 [hu IgG1/k]; LALA H435A
As to B3, in the test with VEGF-A, the Kd came to 1.8 pM and the kon is 9.7e+06 M⁻¹ s⁻¹. In the test with PDGF-BB, this molecule showed a Kd of 0.45 pM and a kon of 2e+07 M⁻¹ s⁻¹.

B4: 9E10.1_GS_9E8.4 (PR-1612491) (bispecific antibody, human IgG1, kappa, L234A L235A)
heavy: EIQLVQSGSELKKPGASVKVSCKASGYTFTNYGMYWVKQAPGQGLEYMGWIDTETGRPTYADDFKGRFVFSLDTSVSTAYLQISSLKAEDTAVYFCARWSGDTTGIRGPWFAYWGQGTLVTVSSGGGGSGGGGSEVTLRESGPALVKPTQTLTLTCTFSGFSLSTYGMGVGWIRQPPGKALEWLANIWWDDDKYYNPSLKNRLTISKDTSKNQVVLTMTNMDPVDTATYYCARIESIGTTYSFDYWGQGTMVTVSSASTKGPSVFPLAPSSKSTSGGTAALGCLVKDYFPEPVTVSWNSGALTSGVHTFPAVLQSSGLYSLSSVVTVPSSSLGTQTYICNVNHKPSNTKVDKKVEPKSCDKTHTCPPCPAPEAAGGPSVFLFPPKPKDTLMISRTPEVTCVVVDVSHEDPEVKFNWYVDGVEVHNAKTKPREEQYNSTYRVVSVLTVLHQDWLNGKEYKCKVSNKALPAPIEKTISKAKGQPREPQVYTLPPSREEMTKNQVSLTCLVKGFYPSDIAVEWESNGQPENNYKTTPPVLDSDGSFFLYSKLTVDKSRWQQGNVFSCSVMHEALHNAYTQKSLSLSPGK
light: DIRMTQSPSSLSASVGDRVTIECLASEDIYSDLAWYQQKPGKSPKLLIYNANGLQNGVPSRFSGSGSGTDYSLTISSLQPEDVATYFCQQYNYFPGTFGQGTKLEIKGGSGGGGSGGEFVLTQSPGTLSLSPGERATLSCERSSGDIGDSYVSWYQQKPGQAPRLVIYADDQRPSGIPDRFSGSGSGTDFTLTISRLEPEDFAVYYCQSYDINIDIVFGGGTKVEIKRTVAAPSVFIFPPSDEQLKSGTASVVCLLNNFYPREAKVQWKVDNALQSGNSQESVTEQDSKDSTYSLSSTLTLSKADYEKHKVYACEVTHQGLSSPVTKSFNRGEC
notes: DVD-Ig: outer hBEW-9E10.1 (VEGF), inner hBDI-9E8.4 (PDGF), linkers GS-H10 / GS-L10(dR); Human IgG1 L234A, L235A, H435A with kappa light chain
With B4, the Kd with VEGF-A was found to be 2.2 pM; with PDGF-BB, 25 pM. The values for the on-rate constant (kon) with VEGF-A and with PDGF-BB were 1.1e+07 M⁻¹ s⁻¹ and 6.8e+06 M⁻¹ s⁻¹, respectively.

B5: 9E10.1_GS_3E2.1 (PR-1610562) (bispecific antibody, human IgG1, kappa, L234A L235A)
heavy: EIQLVQSGSELKKPGASVKVSCKASGYTFTNYGMYWVKQAPGQGLEYMGWIDTETGRPTYADDFKGRFVFSLDTSVSTAYLQISSLKAEDTAVYFCARWSGDTTGIRGPWFAYWGQGTLVTVSSGGGGSGGGGSEVQLVQSGAEVKKPGSSVKVSCKASGYTFTESYMYWVKQAPGQGLELIGRIDPEDGSTDYVEKFKNKATLTADKSTSTAYMELSSLRSEDTAVYFCARFGARSYFYPMDAWGQGTTVTVSSASTKGPSVFPLAPSSKSTSGGTAALGCLVKDYFPEPVTVSWNSGALTSGVHTFPAVLQSSGLYSLSSVVTVPSSSLGTQTYICNVNHKPSNTKVDKKVEPKSCDKTHTCPPCPAPEAAGGPSVFLFPPKPKDTLMISRTPEVTCVVVDVSHEDPEVKFNWYVDGVEVHNAKTKPREEQYNSTYRVVSVLTVLHQDWLNGKEYKCKVSNKALPAPIEKTISKAKGQPREPQVYTLPPSREEMTKNQVSLTCLVKGFYPSDIAVEWESNGQPENNYKTTPPVLDSDGSFFLYSKLTVDKSRWQQGNVFSCSVMHEALHNAYTQKSLSLSPGK
light: DIRMTQSPSSLSASVGDRVTIECLASEDIYSDLAWYQQKPGKSPKLLIYNANGLQNGVPSRFSGSGSGTDYSLTISSLQPEDVATYFCQQYNYFPGTFGQGTKLEIKGGSGGGGSGGETVLTQSPATLSLSPGERATLSCRASESVSTLMHWYQQKPGQQPRLLIYGASNLESGVPARFSGSGSGTDFTLTISSLEPEDFAVYFCQQSWNDPWTFGGGTKVEIKRTVAAPSVFIFPPSDEQLKSGTASVVCLLNNFYPREAKVQWKVDNALQSGNSQESVTEQDSKDSTYSLSSTLTLSKADYEKHKVYACEVTHQGLSSPVTKSFNRGEC
notes: DVD-Ig: outer hBEW-9E10.1 (VEGF), inner hBFU-3E2.1 (PDGF), linkers GS-H10 / GS-L10(dR); Human IgG1 L234A, L235A, H435A with kappa light chain
On to B5, for which, in the test with VEGF-A, the Kd turned out to be 2.4 pM and the kon amounted to 9.3e+06 M⁻¹ s⁻¹. In the test with PDGF-BB, this molecule gave a Kd of 21 pM and a kon of 4.1e+07 M⁻¹ s⁻¹.
